US20210238276A1 (INTEGRAL MOLECULAR, published 2021)

How the values were obtained:
Experiment in all cases: flow cytometry, alanine-scan library in HEK-293T, with cytochalasin B
[1] = molecular target: T1, hsGLUT4 E162A (human, UniProt P14672 1-509)
T1 sequence: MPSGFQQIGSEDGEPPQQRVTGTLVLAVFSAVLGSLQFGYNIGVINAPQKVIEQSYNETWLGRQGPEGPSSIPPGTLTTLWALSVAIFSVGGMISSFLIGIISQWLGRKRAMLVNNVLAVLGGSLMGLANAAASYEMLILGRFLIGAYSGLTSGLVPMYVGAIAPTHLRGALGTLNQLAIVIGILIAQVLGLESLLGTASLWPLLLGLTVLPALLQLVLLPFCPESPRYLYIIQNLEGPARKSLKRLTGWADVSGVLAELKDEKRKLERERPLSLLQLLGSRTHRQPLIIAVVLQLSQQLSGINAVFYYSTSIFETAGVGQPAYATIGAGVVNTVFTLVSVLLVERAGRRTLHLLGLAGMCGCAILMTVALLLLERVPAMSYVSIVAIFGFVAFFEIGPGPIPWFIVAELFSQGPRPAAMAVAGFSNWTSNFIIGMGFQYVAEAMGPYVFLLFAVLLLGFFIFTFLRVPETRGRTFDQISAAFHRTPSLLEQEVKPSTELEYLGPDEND
Method in brief: (§1)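 HEK-293T cells expressing individual GLUT4 alanine mutants were stained 48 h post-transfection with anti-GLUT4 scFv MAbs (2 μg/ml), then biotinylated secondary and streptavidin-PerCP, and read by high-throughput flow cytometry. Where used, cytochalasin B (10 uM final) was given for 30 min before and during primary antibody staining.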

[2] = molecular target: T2, hsGLUT4 L247A (human, UniProt P14672 1-509)
T2 sequence: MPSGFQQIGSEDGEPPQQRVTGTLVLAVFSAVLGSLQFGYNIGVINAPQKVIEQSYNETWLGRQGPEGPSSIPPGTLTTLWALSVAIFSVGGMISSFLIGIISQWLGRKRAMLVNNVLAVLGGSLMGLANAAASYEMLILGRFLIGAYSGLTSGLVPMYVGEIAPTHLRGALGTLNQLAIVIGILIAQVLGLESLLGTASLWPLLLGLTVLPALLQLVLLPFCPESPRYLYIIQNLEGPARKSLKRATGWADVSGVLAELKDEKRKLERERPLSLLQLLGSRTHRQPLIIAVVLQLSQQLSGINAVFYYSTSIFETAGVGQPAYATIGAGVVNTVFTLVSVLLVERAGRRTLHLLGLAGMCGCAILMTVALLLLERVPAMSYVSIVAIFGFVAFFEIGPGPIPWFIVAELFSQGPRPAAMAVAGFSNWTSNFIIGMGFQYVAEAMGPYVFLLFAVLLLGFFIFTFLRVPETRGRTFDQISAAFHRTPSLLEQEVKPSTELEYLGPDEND
Method in brief: as §1

[3] = molecular target: T3, hsGLUT4 N304A (human, UniProt P14672 1-509)
T3 sequence: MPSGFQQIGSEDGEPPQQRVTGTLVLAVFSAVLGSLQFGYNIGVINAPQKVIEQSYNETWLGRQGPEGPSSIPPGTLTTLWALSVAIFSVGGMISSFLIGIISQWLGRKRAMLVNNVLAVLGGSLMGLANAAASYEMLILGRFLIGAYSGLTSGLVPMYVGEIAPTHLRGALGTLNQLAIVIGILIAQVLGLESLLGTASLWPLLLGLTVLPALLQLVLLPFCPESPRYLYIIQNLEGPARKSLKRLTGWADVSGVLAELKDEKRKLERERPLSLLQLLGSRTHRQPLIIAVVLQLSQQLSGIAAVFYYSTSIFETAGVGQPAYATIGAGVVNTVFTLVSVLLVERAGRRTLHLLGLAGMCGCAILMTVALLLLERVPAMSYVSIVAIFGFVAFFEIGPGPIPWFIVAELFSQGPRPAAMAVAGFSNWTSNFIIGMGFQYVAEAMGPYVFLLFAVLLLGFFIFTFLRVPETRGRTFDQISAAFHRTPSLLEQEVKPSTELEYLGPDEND
Method in brief: as §1

[4] = molecular target: T4, hsGLUT4 I313A (human, UniProt P14672 1-509)
T4 sequence: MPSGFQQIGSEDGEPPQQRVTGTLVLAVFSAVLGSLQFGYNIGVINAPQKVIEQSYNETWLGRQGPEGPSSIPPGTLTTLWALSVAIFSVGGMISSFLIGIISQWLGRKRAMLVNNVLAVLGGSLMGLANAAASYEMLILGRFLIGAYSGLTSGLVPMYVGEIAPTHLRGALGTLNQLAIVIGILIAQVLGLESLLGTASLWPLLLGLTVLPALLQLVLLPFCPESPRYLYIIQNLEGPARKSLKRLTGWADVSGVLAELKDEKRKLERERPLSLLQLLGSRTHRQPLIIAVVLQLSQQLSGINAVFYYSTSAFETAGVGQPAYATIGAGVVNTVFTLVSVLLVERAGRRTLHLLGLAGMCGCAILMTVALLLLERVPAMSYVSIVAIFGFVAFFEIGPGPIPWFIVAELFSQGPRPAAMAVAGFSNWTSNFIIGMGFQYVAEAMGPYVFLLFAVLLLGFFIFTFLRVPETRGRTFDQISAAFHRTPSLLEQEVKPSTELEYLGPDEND
Method in brief: as §1

% of binding to wild type GLUT4 [1]: 7%
% of binding to wild type GLUT4 [2]: 15%
% of binding to wild type GLUT4 [3]: 112%
% of binding to wild type GLUT4 [4]: 15%
B1: AB102 (Fc fusion)
scFv: ALTQPSSVSANLGGTVKITCSGGGSYGYGWYQQKSPGSAPVTVIYSNDQRPSDIPSRFSGSKSGSTATLTITGVRAEDEAIYYCGSTDSDYVGIFGAGTTLTVLGQSSRSSGGGGSSGGGGSAVTLDESGGGLQTPGGTLSLVCKASGFDFSSYATIWVRQAPGKGLEWVAGISGTGTGSSTGYAPAVKGRATISRDNGQSTVRLQLNNLRAEDTGSYFCAKSTGYGDSWIYPDSIDAWGHGTEVIVSS
notes: also called MAb AB102; not shown: Fc fragment of human IgG1, cloned in frame with the scFv
